The target in this assay is recombinant YFV E protein (Meridian Life Science) (Yellow fever virus, UniProt P03314 286-679). Nature of the assay: ELISA. Background: An ELISA detects its analyte on a solid surface through an enzyme-linked reagent.

The EC50 is the concentration that produces a half-maximal response.

Sequence of recombinant YFV E protein (Meridian Life Science) (P03314 286-679): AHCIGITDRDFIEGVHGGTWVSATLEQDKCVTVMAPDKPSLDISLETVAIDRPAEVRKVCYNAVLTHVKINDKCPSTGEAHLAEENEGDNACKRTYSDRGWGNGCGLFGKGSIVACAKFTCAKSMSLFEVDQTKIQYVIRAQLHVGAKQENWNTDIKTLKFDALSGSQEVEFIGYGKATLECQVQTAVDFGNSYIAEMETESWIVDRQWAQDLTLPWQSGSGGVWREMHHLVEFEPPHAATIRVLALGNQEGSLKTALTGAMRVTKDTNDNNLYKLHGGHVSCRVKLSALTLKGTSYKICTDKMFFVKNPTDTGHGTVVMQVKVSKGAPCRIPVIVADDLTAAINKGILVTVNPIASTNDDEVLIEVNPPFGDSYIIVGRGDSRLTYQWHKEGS

B1: human monoclonal antibody YFV-121 (antibody, V domains shown)
VH: EVQLVESGGGLVQPGGSLRLSCAASGFTFSSYSMNWVRQAPGKGLEWVSYISSSSRTIYYADSVKGRFTISRDNAKNSLDLQMNSLRDEDTAVYYCAREVSSHGYRYWGQGTLVTVSS
VL: EIVLTQSPATLSLSPGERATLSCRASQSVSSFLAWYQQKPGQAPRLLIYDASNRATGIPARFTGSGSGTDFTLTISSLEPEDFAVYYCQQRSNWPPWTFGQGTKVEIK
On to B1, for which the EC50 turned out to be 0.311 µg/mL.

B2: human monoclonal antibody YFV-136 (antibody, V domains shown)
VH: QVQLQESGPGLVKPSGTLSLTCAVSGGSISSSNWWSWVRQPPGKGLEWIGDIYHSGSTSYNPSLKSRVTISVDRSKNQFSLKLSSVTAADTAVYYCARAPLVNWYYFDYWGQGTLVTVSS
VL: QSVLTQPPSVSAAPGQKVTISCSGSSSNIGNNYVSWYQQLPGTAPKLLIYDNNKGPSGIPDRFSGSKSGTSATLGITGLQTGDEADYYCGTWDTSLSAGRVFGGGTKLTVL
For the molecule B2, the EC50 came out at 0.27 µg/mL.

Source of the values: US20230072640A1 (published 2023).
